Columns and labels:
[1] = target: synthetic IgA1 hinge-region glycopeptide linked to BSA with 3 GalNAc residues (HR-GalNAc-BSA) (bovine) (UniProt P02769); test: ELISA, wells with HR-GalNAc-BSA treated with unlabeled HAA (20 ug/ml); competitor: IgG from cell lines of IgAN patients
[2] = target: Gal-deficient IgA1 (Mce) myeloma protein (human) (UniProt P01876); test: Western blot, membrane pre-incubated with unlabeled HAA (20 ug/ml); competitor: IgG purified from the serum of an IgAN patient; densitometry

percent inhibition of IgG binding [1]: 78% | percent reduction of IgG binding [2]: 66%
Substance: Helix aspersa agglutinin (HAA)

From patent US20120266260A1
